By Km is commonly meant the substrate concentration at which the rate is half of its maximum. A word on the kcat: it is the number of substrate molecules converted per active site and unit of time at saturation.

One series deals with [O-][n+]1cccnc1. As to the kind of experiment: purified protein. The conditions noted are these: purified enzyme, 0.2 mM methyl viologen, 0.3 mM dithionite, 20 mM sodium phosphate pH 6.8, 37°C.
A further series relates to NC(=O)c1ccc[n+]([O-])c1. As to the kind of experiment: purified protein. The conditions noted are these: purified enzyme, 0.2 mM methyl viologen, 0.3 mM dithionite, 20 mM sodium phosphate pH 6.8, 37°C.

As to “MtsZ (HiMtsZ) (Haemophilus influenzae Rd KW20)”, the Michaelis-Menten constant (Km) came out at 35 ± 8 µM in series [O-][n+]1cccnc1 and 46 ± 8 µM in the series on NC(=O)c1ccc[n+]([O-])c1. Further, the kcat in series [O-][n+]1cccnc1 worked out at 33.2 ± 2.7 s⁻¹; in the series with NC(=O)c1ccc[n+]([O-])c1 it was 93 ± 5 s⁻¹.
